Assay [1] has as its target T1, His-tagged soluble human LAG-3 (shLAG-3-His) (human, UniProt P18627 23-450).
T1 construct: also called soluble human LAG-3-His fusion protein; extracellular domain of human LAG-3 fused to a His tag; not shown: His tag
T1 sequence: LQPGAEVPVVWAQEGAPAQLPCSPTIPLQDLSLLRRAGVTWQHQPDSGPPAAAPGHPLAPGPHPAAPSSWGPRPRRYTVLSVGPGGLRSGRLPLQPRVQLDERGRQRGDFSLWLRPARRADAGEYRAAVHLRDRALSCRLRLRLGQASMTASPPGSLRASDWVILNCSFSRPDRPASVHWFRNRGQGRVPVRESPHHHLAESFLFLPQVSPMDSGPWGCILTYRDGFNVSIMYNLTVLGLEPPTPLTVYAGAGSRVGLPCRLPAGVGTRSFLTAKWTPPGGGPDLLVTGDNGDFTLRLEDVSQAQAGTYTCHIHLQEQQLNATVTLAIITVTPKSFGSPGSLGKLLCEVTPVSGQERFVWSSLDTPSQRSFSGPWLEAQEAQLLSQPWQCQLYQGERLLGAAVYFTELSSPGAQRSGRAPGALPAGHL
Nature of the assay: Biacore; antibody captured (capture surface not marked for this row), shLAG-3-His injected. For orientation: In SPR one partner is held on a chip, and binding of the other changes the refractive index at the surface.

The target of assay [2] is T2, soluble cynomolgus monkey LAG-3 fusion protein (extracellular domain of cynomolgus monkey LAG-3 fused to … (cynomolgus monkey; murine).
T2 construct: extracellular domain; also called cynomolgus LAG-3-murine IgG2a fusion protein
The assay is described as follows: Biacore; cynomolgus LAG-3 ECD-murine IgG2a captured on Fab2 goat-anti-mouse Fc, antibody injected.

Assay [3] deals with T3, soluble human LAG-3 fusion protein (extracellular domain of human LAG-3 fused to murine IgG2a) (human; murine, UniProt P18627 23-450).
T3 construct: also called human LAG-3-murine IgG2a fusion protein; not shown: murine IgG2a
T3 sequence: T1 sequence
Nature of the assay: Biacore; human LAG-3 ECD-murine IgG2a captured on Fab2 goat-anti-mouse Fc, antibody injected.

B1: LAG-3 mAb A (25F7, BMS-986016, Medarex/BMS) (antibody, V domains shown)
VH: QVQLQQWGAGLLKPSETLSLTCAVYGGSFSDYYWNWIRQPPGKGLEWIGEINHNGNTNSNPSLKSRVTLSLDTSKNQFSLKLRSVTAADTAVYYCAFGYSDYEYNWFDPWGQGTLVTVSS
VL: EIVLTQSPATLSLSPGERATLSCRASQSISSYLAWYQQKPGQAPRLLIYDASNRATGIPARFSGSGSGTDFTLTISSLEPEDFAVYYCQQRSNWPLTFGQGTNLEIK
notes: also called LAG-2 mAb A
For the molecule B1, the dissociation constant Kd (commonly a measure of binding affinity in units of concentration) in assay [1] worked out at 0.6 nM; in assay [2] it was 458 nM; in assay [3], 0.16 nM.

The values above are taken from patent publication US20190085075A1 (published 2019).
